Results taken from patent US20210290678A1 (published 2021).

What was measured:
[1] = target: T1, human protein tyrosine kinase 7 (PTK7) (human, UniProt Q13308 31-1070); experiment: flow cytometry cell binding titration; HCC70 human cells; unit from dose axis
T1 chain: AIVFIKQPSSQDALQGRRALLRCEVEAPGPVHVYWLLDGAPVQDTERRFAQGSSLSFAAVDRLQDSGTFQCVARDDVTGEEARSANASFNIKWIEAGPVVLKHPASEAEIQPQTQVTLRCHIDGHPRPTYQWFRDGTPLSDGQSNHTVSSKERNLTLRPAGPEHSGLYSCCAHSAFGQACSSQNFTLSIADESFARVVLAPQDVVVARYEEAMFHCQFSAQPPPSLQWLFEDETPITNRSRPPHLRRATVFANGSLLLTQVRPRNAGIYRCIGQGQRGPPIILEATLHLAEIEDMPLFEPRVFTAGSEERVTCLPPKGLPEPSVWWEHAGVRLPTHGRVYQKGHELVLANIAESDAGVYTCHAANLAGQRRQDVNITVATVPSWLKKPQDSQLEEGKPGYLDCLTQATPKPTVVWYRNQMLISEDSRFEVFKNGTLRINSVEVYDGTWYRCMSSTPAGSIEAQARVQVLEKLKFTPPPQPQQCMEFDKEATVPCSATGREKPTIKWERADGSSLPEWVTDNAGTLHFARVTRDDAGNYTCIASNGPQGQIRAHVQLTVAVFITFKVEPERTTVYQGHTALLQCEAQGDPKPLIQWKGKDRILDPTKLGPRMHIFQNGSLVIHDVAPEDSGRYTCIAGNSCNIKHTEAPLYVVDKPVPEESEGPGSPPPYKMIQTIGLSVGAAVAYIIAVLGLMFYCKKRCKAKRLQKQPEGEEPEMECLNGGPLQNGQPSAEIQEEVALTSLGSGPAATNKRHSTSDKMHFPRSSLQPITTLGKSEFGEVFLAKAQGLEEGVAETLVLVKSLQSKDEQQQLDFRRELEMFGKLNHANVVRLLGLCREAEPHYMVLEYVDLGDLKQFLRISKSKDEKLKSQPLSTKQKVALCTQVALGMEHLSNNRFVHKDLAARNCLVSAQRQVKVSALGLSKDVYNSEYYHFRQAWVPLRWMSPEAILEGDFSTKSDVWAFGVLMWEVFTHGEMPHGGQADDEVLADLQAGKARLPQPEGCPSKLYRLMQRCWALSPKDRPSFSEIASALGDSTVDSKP

murine PTK7 = target: T2, murine PTK7 (murine, UniProt Q8BKG3 23-1062); experiment: flow cytometry cell binding titration; 3T3L1 murine cells; unit from dose axis
T2 chain: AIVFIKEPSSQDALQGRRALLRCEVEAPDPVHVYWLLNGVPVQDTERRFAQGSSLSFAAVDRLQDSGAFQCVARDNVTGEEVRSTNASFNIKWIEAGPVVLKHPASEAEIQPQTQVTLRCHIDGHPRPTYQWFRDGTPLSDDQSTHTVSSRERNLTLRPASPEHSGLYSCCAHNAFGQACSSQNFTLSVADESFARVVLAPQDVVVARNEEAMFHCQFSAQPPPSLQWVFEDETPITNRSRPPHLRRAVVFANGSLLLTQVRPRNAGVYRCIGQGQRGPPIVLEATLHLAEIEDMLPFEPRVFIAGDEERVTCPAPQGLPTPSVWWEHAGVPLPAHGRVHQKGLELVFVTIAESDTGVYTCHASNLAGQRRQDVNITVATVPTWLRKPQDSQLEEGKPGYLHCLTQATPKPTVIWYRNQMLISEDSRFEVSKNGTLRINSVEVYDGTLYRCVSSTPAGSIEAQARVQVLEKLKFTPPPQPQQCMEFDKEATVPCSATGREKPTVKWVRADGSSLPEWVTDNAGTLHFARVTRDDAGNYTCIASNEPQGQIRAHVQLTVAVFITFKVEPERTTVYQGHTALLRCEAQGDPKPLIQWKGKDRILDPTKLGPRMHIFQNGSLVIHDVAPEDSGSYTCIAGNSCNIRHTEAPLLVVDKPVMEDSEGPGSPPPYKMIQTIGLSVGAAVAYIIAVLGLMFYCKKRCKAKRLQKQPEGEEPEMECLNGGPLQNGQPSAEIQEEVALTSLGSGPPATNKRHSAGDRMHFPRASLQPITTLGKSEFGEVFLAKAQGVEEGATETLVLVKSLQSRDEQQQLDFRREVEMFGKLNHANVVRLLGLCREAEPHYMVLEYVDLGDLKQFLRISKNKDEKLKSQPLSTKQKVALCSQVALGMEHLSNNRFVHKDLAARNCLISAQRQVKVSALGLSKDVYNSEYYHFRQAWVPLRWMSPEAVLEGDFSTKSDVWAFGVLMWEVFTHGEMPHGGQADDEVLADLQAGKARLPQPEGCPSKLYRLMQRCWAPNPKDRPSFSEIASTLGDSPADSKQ

Kd (murine PTK7): 0.662 nM
B1: CTX181 mAb (custom recombinant monoclonal anti-PTK7 antibody, Creative Biolabs) (antibody, V domains shown)
VH: QVQLVESGGGVVQPGRSLRLSCAASGFTFSSYGMHWVRQAPGKGLEWVAVIWDDGSNKYYVDSVKGRFTISRDNSKNTLYLQMNSLRAEDTAVYYCARDDYYGSGSFNSYYGTDVWGQGTTVTVSS
VL: EIVLTQSPATLSLSPGERATLSCRASQSVSIYLAWYQQKPGQAPRLLIYDASNRATGIPARFSGSGSGTDFTLTISSLEPEDFAVYYCQQRSNWPPFTFGPGTKVDIKR
Kd [1]: 1.53 nM
